Measured values: the DeepSol protein solubility set

Experiment: soluble on expression in E. coli; label from the status in PepcDB or PDB records

Sequence	soluble on expression in E. coli
SNAMVQAQTRDQIVAAADELFYRQGFAQTSFVDISAAVGISRGNFYYHFKTKDEILAEVIRLRLARTAQMLADWQGTGDSPRARIASFIDLMIMNRAKITRYGCPVGSLCTELSKLDHAAQGQANGLFTLFRDWLQRQFAEAGCTTEAPALAMHLLARSQGAATLAQSFHDEGFLRSEVADMHRWLDNTLPMTT	soluble
GAMERKANYAVDAYFREALRVSEPKAPKAPRPPKQPIVQDFQFFPPRLFELLDQEIYYFRKTVGYKVPKNTELGSDATKVQREEQRKIDEAEPLTEEEIQEKENLLSQGFTAWTKRDFNQFIKANEKYGRDDIDNIAKDVEGKTPEEVIEYNAVFWERCTELQDIERIMGQIERGEGKIQRRLSIKKALDQKMSRYRAPFHQLRLQYGNNKGKNYTEIEDRFLVCMLHKLGFDKENVYEELRAAIRASPQFRFDWFIKSRTALELQRRCNTLITLIERENIELEEKERAEKKKKAPKGSVSAGS	soluble
MGSDKIHHHHHHMSRKDVVAGIRNEEGISTVLDLLKQSFGERFQTGQSFREQHAHTTTYLPAQLPDGVVFVESAEDVKTVVRTCAQHKVPMVPFGVGSSLEGQVNAAHGGISIDFTRMDKVLEVNAEDLDCTVQPGVTREALNTYLRDTGLFFPIDPGANASIGGMASTRASGTNAVRYGTMKDNVMALTVVTANGEEIRTAHRARKSSAGYDLTRLFVGAEGTLGVITSITLKLQGIPEKIGGGVCAFADVKSACDAVIMTIQMGIPVARIELLDAMQVRACNAYSNLSLPERPTLFLEFHGTEQTVALQAQQFAAIAEEYGAEDLRFTSDPQERAQLWKARHNAYWAGRALAPELAGLSTDVCVPISKLAECVAETQADIAETGLLAPIVGHVGDGNFHLLILFDDKDAENVDKVEAFMARLNERALAMDGTCTGEHGVGQGKMSYLEAELGGALDVMRQVKRGLDPDNLFNPGKIFRL	not soluble
MGSDKIHHHHHHMSNLKHTRHNSHNVRHHSTGNSMNYVSTGQGEAILLIHGLFGNLDNLKGLGQALEAHHQVIRVDVPNHGLSEHRQQMDYPSLAKAMVDLLDELELERVHIVGHSMGGKIAMATALAYPNRIISLVAADIAPVAYQPRHNAVFAALESLPLEGHTDRRFALAHLLAAGIDDATAQFLLKNLQRSGTGFRWKMNLTGLKSGYPNIIGWHNLPNEPQLVFAGPSLFIRGGDSNYVAAAHRDEILRQFPQAQAKTLEGCGHWLHAQKPTIFNRIVSEFIDKHTV	not soluble
MKKALMICAAGTMIFVSYSAENTAPEVSKAVEDRITKDYDQDGVYSSYEKALRRAQGSIYVTLPEKRGEWYSTLDKIKEEEKELMPDEEARMRRKR	not soluble
MLLGYCGSGYYGMQYNPPHKTIEGEILTKLFDVGAISEENSLAPKKNSFMAAARTDKGVHAMLNLLSLKITLREDTVAKLNAALPPEIRVWGIQPVNKKFNARSACDSRWYQYLIPEFILIGPPRSSLLHRNVGGCYREDGSQEVWDTFLEQTRGRFSGDELCRLQDTAQKLSESDPLVQDYVGLLSGTLSGYCLSPSKLDAFEAAMQEYVGTHNFHNFTTGKLWGDPSAQRHIKKVVVSQASPGWICVRIHGQSFMLHQIRRMVALAVLAARCQLPPNIVRNYFNAGPRKYIPRAPAQGLLLEGPVFDGYNTKLRNLLYCEIRPDDITLERMCRFRERQICTAIAHEETQRHVFCHFVRQMNRLATPLI	not soluble
GPGSMDDKQAFFVRCIDGKTFKMVIRGDLGKLTVGKIRRYLKSYGVQDGMQLLFNGLSLADEQVGSDFGLCNGATLHLGPPSFSEPAVPQRTHGQGFSDEAAGSRTGDPTDTPHSSLSGDSRERNSKADSTHRDPCGGLSHADPARGTATYSGGRYNVDKGIPVTATSATKTNIDRIPSADLTSHSGFPVALEVENQQLREQVELLRREVADLRQKNKAPRATVLRQDLTSIEVLQSAKSNLQELAEELGVPLQFDTNFTCVVGDDESHTVLVTFDCVTERLYIYSTLLTQIPHDGEVRAKLYELLLEGSLLSREVCGGGIGISPQNGLVLLSTTIPLRHCNSSALKDIMPVFVETVARWRSLINELLN	soluble
GPGSMVHSYGYKSGTRHLFAKKFRKHGAPSVSTILTNIKVGDYVDVVADSAVREGMPHKYYHGRTGIVWNVTPRGVGVIINKPVRTRTLRKRICVRFEHVRKSRCQEAFKAKEHQFQAYLAAKKAGKALPPLQKSSRLGGIVRPKTVEVLARRVADYEAMVPY	not soluble
MAKSLLRSGNLDDYQAVGGGGQAVFESALQIRETLRLRKQQAMVDCLAIPQLNDNGDRVDWYSPIEGQAIAWKAADEETRSRALRYLASTFESAAALSRKSLQSGKTALQLFGSLLEKATQFPGENHVFLVNGKPVITFWGFVNLNENTRDDVLDCLRVTEAIPDIPLVEPEPEEKPLVEAAFSQADEPLLTSVIEPPKMPEEPAAPPVIVSEPKPAAPIPVAEAKRARRLPLWSLPVAAVVIAAVATPFFWPSSSVDGASPVRAAPVATAKTDVTPLPELTAHLPLHRAEVTPAPKAAPLPEAPVIIAAIPKDALVMDNTQMKLGTTRFLNGSWRISVDVKDPITGKPPSLRYQIQNNKGIARVVHGDNVVCRAEIFSGLHQTGELMIKSRGNARCTDGSRYPMPEITCKAGVNDVATCTARYGDHAAIPLTFKKIGA	not soluble
MAHHHHHHMSEQILFDNFPLTFLNKDASEDYEDKNEKTYREKIKNIIEDLKSLRIEINEKYSIRSMLEEKLTLLQKEEQTKENNMKYIMNFSEHNIYEREVLNYQKNIAHLKKQIQTSNSKIKLLLEKEFKVRKQLQINYMNLYDILNERIEYIVENYVKHRKCSCAIYAYKQEKKEE	not soluble
MGSDKIHHHHHHMSNKPFFYQDPFPLKKDDTEYYLLTSEHVSVAEFEGQEILKVAPEALTLLARQAFHDASFMLRPAHQQQVADILRDPQASENDKYVALQFLRNSDIAAKGVLPTCQDTGTAIIVGKKGQRVWTGGGDEAALARGVYNTYIEDNLRYSQNAALDMYKEVNTGTNLPAQIDLYSVDGDEYKFLCIAKGGGSANKTYLYQETKALLTPGKLKNYLVDKMRTLGTAACPPYHIAFVIGGTSAEANLKTVKLASAKYYDALPTEGNEHGQAFRDIELEKELLLEAQNLGLGAQFGGKYFAHDIRVIRLPRHGASCPVGMGVSCSADRNIKAKINRDGIWIEKLERNPGKYIPEALRQAGEGEAVRVDLNRPMSEILQQLSQYPVSTRLSLNGTIIVGRDIAHAKLKERMDRGEGLPQYIKDHPIYYAGPAKTPEGYASGSLGPTTAGRMDSYVDQLQSQGGSMIMLAKGNRSQQVTDACKKHGGFYLGSIGGPAAVLAQGSIKRLECVEYPELGMEAIWKIEVEDFPAFILVDDKGNDFFQQIQSSQCGAALSNVAALRGGNMIRYFAGERRKRLIRSTPLCCYR	not soluble
MSTFFQQTAQAMIAKHIDRFPLLKLDQVIDWQPIEQYLNRQKTRYLRDHRGRPACPLLSMFKAVLLGQWHNLSDPELEHSLITRIDFNLFCRFDELSIPDYSTLCRYRNRLAQDDTLSELLELINRQLTEKGLKVEKASAAVVDATIIQTVGSKQRQAIEVDEEGQVSGQTTLSKDKNARWTKKNSLYKLGYKQHTRTDAEGYIEKLHITPANAHECKHLSPLLEGLPEGTTIYADKGYDSAENRQHLEEHQLQDGIMRKACRNRPLTETQTKRNRYLSKTRYVVEQSFGTLHRKFRYARAAYFGLICARCRLKGSPDA	not soluble
MSKTLDGEPIECEIIDSLKLVNNTMDKIISRGYEKSAIYTPKAYGSVYRLSETNLLSKNEFKDNLLITFMAKKFKKLIRSEKPDLIIGTHPFPMIALSTLKKNFNLHNNESNAYTEHFYKHYTNTINVPPLISVLTDYTTHSTWIQNEIDYYIVGHEYVKELLVFDGVEPSKIRTFGIPLEHHHHHH	not soluble
MGSDKIHHHHHHMAFYPVHKELQNISQSMPQGNFGLWYNKFIPLSDDAFKPSDDKGSNGKGDENRPVDYYFGQYSKLRLNAAETAAILKQKHEDMDDFCANFPPQKYEEIAICATLDSPLITGIGESHPHEVSMVFDHNMGIPYIPASGVKGIVRFAHTISLIPEAMNKAEVIDNVRFDDEADWTSVPHMFGTQKNRGNVIFLDAYPEDIPALHMDIMNPHYSPYYSEGKPPADHHNPTPIKFLTVAKGTKFIFRAVAKKEQNLPQKIRVAFAEALTKEGVGAKIALGYGRFVIDEDGQKVLLKKRKQRHEEKKRRLSPWLDYIELINQVGDWGQFKQIVLDNEKLVEYRKEMDVTEAVRIKALEIRNKWRKSWGASRDEQIATWLQPAGVEWPCIVAGIENPVKEKSADYEKIMQLIDWGAYKSAGIDLSKLPLDALQLLKQKMEEWGCYSKKAKEDKKTAFKKVKDLLRQHQK	not soluble
MSLINDLRTVPAALDRLVRQLPDHTALIAEDRRFTSTELRDAVYGAAAALIALGVEPADRVAIWSPNTWHWVVACLAIHHAGAAVVPLNTRYTATEATDILDRAGAPVLFAAGLFLGADRAAGLDRAALPALRHVVRVPVEADDGTWDEFIATGAGALDAVAARAAAVAPQDVSDILFTSGTTGRSKGVLCAHRQSLSASASWAANGKITSDDRYLCINPFFHNFGYKAGILACLQTGATLIPHVTFDPLHALRAIERHRITVLPGPPTIYQSLLDHPARKDFDLSSLRFAVTGAATVPVVLVERMQSELDIDIVLTAYGLTEANGMGTMCRPEDDAVTVATTCGRPFADFELRIADDGEVLLRGPNVMVGYLDDTEATAAAIDADGWLHTGDIGAVDQAGNLRITDRLKDMYICGGFNVYPAEVEQVLARMDGVADAAVIGVPDQRLGEVGRAFVVARPGTGLDEASVIAYTREHLANFKTPRSVRFVDVLPRNAAGKVSKPQLRELGEGHHHHHH	not soluble
MAGDQELELRFDVPLYTLAEASRYLVVPRATLATWADGYERRPANAPAVQGQPIITALPHPTGSHARLPFVGIAEAYVLNAFRRAGVPMQRIRPSLDWLIKNVGPHALASQDLCTDGAEVLWRFAERSGEGSPDDLVVRGLIVPRSGQYVFKEIVEHYLQQISFADDNLASMIRLPQYGDANVVLDPRRGYGQPVFDGSGVRVADVLGPLRAGATFQAVADDYGVTPDQLRDALDAIAA	soluble
MNTLLSLMNSIEQEARTIYDSYDAKKKALADKKEEELKQLFLEYEQETQLLLEAKREVFFEANRQEQKASKKRLATQQLALHAILEEHKLTVVRELVDKVVETYGH	not soluble
MSAPLYMQIKQFILDKIDSGDWMVGQRIATEIELTEQFGVSRMTVNKAIRDLVNEGKLQRRPRLGTFVCDPSEKSESPLLDIRNIAEEVSDRGRQYSSKVVQQVAIKADDSIAIKLGVMLGTTVFYSEIIHYEDSTPIQLELRWVNSQYAPSYLSQDFTQITPNQYLSNNCPLSAIEHTVEAIVPDNRIKLDLKMQANEPCLLLNRRTWSQDKLVSTALLYHPGNKYKLSSKVLL	not soluble
MSSSQELRSNFYREKNLMETVFDALKAMGKATSIELAARLDISREEVLNELWELKKAGFVDKSAYTWRVADNNVQQEQPAQAELPEEITTATVAKISECDLTATIEQRGPQTADELATLFGTTSRKVASTLAMAISKGRLIRVNQGGKFRYCIPGDNLPAEPKAASVSPLWLSASSSACHGVLIITVITPSPTKNSATKMPENLEHHHHHH	not soluble
MGHHHHHHSHENKKAKPVPWVEKYRPKCVDEVAFQEEVVAVLKKSLEGADLPNLLFYGPPGTGKTSTILAAARELFGPELFRLRVLELNASDERGIQVVREKVKNFAQLTVSGSRSDGKPCPPFKIVILDEADSMTSAAQAALRRTMEKESKTTRFCLICNYVSRIIEPLTSRCSKFRFKPLSDKIQQQRLLDIAKKENVKISDEGIAYLVKVSEGDLRKAITFLQSATRLTGGKEITEKVITDIAGVIPAEKIDGVFAACQSGSFDKLEAVVKDLIDEGHAATQLVNQLHDVVVENNLSDKQKSIITEKLAEVDKCLADGADEHLQLISLCATVMQQLSQNC	soluble
